Experimental data reported in US20040005550A1 (Scripps Research, published 2004).

Columns and labels:
[1] = target: T1, human αvβ3 integrin on cells (human, UniProt P06756 31-1048; P05106 27-788); assay: flow cytometry binding isotherm, αvβ3-CHO cells, no treatment
T1 construct: whole, on cells; also called vitronectin receptor; αvβ3-CHO cells
Protocol: (§1) Typically, cells were cultured overnight in low serum medium (e.g., 0.5% fetal bovine serum), resuspended in incubation buffer at 1-1.5×10⁷ cells/ml, and 4-6×10⁵ cells were incubated with one of these ligands for 30 min at room temperature in a final volume of 50 μl. […] After 30 min at room temperature, cells were washed and incubated with phycoerythrin-streptavidin (1:25 final dilution; Molecular Probes) for 20 min on ice. […] Cells were washed and resuspended in 0.5 ml incubation buffer containing 2 μg/ml propidium iodide (Sigma, St. Louis, Mo.). Ligand binding (FL1 channel) was analyzed immediately on the gated subset of live cells (propidium iodide-negative, FL3) that was strongly positive for αᵥβ₃ expression (FL2). Binding isotherms were subjected to non-linear, least squares regression analysis using an equation for one-site binding (Prism 2.0 software; GraphPad Software, San Diego, Calif.). Two-tailed P values for paired samples were obtained by Student's t test.

[2] = target: T1, human αvβ3 integrin on cells; assay: flow cytometry binding isotherm, αvβ3-CHO cells, activating antibody AP5
Protocol: as §1

[3] = target: T1, human αvβ3 integrin on cells; assay: flow cytometry, equilibrium binding, unstimulated αvβ3-CHO cells; reference aPB
[4] = target: T1, human αvβ3 integrin on cells; assay: cell-based or functional assay
[5] = target: T2, αIIbβ3 on human platelets (human, UniProt P08514 32-1039; P05106 27-788); assay: flow cytometry on human platelets
T2 construct: whole, on cells; also called platelet αIIbβ3
T2 sequence (P08514 32-1039, chain 1 of 2): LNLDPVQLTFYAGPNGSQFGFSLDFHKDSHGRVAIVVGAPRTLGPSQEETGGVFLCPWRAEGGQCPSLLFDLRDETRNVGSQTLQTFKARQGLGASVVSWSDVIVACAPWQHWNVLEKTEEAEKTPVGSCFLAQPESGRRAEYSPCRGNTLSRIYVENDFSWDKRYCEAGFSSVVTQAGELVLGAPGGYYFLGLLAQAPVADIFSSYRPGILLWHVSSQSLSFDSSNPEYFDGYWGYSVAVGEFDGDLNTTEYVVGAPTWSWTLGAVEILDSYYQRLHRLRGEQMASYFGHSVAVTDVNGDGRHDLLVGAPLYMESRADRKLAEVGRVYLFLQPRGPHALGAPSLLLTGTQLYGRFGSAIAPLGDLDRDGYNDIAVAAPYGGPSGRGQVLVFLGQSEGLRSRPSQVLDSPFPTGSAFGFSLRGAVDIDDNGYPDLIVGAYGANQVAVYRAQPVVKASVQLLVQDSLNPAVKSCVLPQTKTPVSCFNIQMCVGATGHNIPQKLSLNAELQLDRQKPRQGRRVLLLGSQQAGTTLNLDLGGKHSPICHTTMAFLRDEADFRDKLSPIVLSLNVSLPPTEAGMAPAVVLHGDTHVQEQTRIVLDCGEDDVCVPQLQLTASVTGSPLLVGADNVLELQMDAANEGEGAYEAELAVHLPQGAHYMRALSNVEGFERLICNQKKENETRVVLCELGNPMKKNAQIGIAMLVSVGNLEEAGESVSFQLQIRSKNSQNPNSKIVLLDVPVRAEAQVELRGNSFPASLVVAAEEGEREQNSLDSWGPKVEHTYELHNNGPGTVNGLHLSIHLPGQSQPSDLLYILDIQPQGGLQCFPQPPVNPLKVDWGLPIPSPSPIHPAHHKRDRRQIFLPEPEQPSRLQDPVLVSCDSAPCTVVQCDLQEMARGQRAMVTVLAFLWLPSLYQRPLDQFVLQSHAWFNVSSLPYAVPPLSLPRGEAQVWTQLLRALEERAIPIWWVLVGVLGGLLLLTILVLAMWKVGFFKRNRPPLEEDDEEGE
T2 sequence (P05106 27-788, chain 2 of 2): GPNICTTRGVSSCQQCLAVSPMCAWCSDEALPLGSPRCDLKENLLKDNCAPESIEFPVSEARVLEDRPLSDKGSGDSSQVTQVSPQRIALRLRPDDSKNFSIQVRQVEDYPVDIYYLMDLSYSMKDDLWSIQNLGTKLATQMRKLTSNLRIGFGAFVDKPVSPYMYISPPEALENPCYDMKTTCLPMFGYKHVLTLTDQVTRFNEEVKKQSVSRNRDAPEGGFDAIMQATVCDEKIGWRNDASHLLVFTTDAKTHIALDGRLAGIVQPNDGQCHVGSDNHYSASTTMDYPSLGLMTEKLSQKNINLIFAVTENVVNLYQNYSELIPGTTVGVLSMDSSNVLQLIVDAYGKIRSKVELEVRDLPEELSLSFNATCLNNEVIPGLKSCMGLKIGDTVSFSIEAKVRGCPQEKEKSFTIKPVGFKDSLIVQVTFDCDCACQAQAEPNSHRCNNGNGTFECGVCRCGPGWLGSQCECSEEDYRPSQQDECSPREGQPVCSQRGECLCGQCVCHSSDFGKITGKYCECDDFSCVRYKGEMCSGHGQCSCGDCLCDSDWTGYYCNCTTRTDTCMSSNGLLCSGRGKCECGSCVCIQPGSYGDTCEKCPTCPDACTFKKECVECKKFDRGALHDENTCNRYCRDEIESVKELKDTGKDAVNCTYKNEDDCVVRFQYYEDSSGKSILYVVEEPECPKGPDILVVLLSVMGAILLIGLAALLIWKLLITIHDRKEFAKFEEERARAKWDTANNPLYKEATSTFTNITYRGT

[6] = target: T1, human αvβ3 integrin on cells; assay: flow cytometry, JY cells, 100 nM phorbol myristate acetate for 15 min

T1 sequence (P06756 31-1048, chain 1 of 2): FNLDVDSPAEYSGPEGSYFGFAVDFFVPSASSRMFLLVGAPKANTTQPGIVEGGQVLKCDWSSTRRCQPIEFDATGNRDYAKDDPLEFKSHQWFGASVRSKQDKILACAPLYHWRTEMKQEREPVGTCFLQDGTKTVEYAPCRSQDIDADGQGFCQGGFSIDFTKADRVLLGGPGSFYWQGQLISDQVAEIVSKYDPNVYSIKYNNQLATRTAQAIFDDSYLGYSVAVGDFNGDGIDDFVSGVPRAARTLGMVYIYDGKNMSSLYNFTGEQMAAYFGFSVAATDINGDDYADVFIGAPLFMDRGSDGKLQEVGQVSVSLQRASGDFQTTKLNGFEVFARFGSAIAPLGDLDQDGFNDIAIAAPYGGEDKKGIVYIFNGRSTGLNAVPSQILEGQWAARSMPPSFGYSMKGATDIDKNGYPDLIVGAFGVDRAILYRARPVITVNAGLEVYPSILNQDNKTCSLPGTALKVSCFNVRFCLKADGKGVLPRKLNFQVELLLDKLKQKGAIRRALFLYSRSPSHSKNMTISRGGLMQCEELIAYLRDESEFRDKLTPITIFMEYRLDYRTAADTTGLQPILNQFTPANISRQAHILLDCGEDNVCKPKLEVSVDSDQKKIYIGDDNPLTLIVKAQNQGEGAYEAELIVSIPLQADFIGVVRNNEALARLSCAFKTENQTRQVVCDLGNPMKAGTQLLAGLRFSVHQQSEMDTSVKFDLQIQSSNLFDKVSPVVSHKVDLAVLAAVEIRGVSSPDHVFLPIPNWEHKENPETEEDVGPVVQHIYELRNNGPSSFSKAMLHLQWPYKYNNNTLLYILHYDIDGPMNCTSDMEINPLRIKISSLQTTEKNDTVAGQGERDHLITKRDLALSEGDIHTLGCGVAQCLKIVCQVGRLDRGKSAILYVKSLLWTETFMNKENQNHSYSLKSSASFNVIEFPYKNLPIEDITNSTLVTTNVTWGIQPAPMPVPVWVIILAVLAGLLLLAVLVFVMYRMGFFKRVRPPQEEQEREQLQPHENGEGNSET
T1 sequence (P05106 27-788, chain 2 of 2): as the sequence (P05106 27-788, chain 2 of 2) above

B1: Purified human fibrinogen (ligand)
chain 1: ADSGEGDFLAEGGGVRGPRVVERHQSACKDSDWPFCSDEDWNYKCPSGCRMKGLIDEVNQDFTNRINKLKNSLFEYQKNNKDSHSLTTNIMEILRGDFSSANNRDNTYNRVSEDLRSRIEVLKRKVIEKVQHIQLLQKNVRAQLVDMKRLEVDIDIKIRSCRGSCSRALAREVDLKDYEDQQKQLEQVIAKDLLPSRDRQHLPLIKMKPVPDLVPGNFKSQLQKVPPEWKALTDMPQMRMELERPGGNEITRGGSTSYGTGSETESPRNPSSAGSWNSGSSGPGSTGNRNPGSSGTGGTATWKPGSSGPGSTGSWNSGSSGTGSTGNQNPGSPRPGSTGTWNPGSSERGSAGHWTSESSVSGSTGQWHSESGSFRPDSPGSGNARPNNPDWGTFEEVSGNVSPGTRREYHTEKLVTSKGDKELRTGKEKVTSGSTTTTRRSCSKTVTKTVIGPDGHKEVTKEVVTSEDGSDCPEAMDLGTLSGIGTLDGFRHRHPDEAAFFDTASTGKTFPGFFSPMLGEFVSETESRGSESGIFTNTKESSSHHPGIAEFPSRGKSSSYSKQFTSSTSYNRGDSTFESKSYKMADEAGSEADHEGTHSTKRGHAKSRPV
chain 2: QGVNDNEEGFFSARGHRPLDKKREEAPSLRPAPPPISGGGYRARPAKAAATQKKVERKAPDAGGCLHADPDLGVLCPTGCQLQEALLQQERPIRNSVDELNNNVEAVSQTSSSSFQYMYLLKDLWQKRQKQVKDNENVVNEYSSELEKHQLYIDETVNSNIPTNLRVLRSILENLRSKIQKLESDVSAQMEYCRTPCTVSCNIPVVSGKECEEIIRKGGETSEMYLIQPDSSVKPYRVYCDMNTENGGWTVIQNRQDGSVDFGRKWDPYKQGFGNVATNTDGKNYCGLPGEYWLGNDKISQLTRMGPTELLIEMEDWKGDKVKAHYGGFTVQNEANKYQISVNKYRGTAGNALMDGASQLMGENRTMTIHNGMFFSTYDRDNDGWLTSDPRKQCSKEDGGGWWYNRCHAANPNGRYYWGGQYTWDMAKHGTDDGVVWMNWKGSWYSMRKMSMKIRPFFPQQ
chain 3: YVATRDNCCILDERFGSYCPTTCGIADFLSTYQTKVDKDLQSLEDILHQVENKTSEVKQLIKAIQLTYNPDESSKPNMIDAATLKSRKMLEEIMKYEASILTHDSSIRYLQEIYNSNNQKIVNLKEKVAQLEAQCQEPCKDTVQIHDITGKDCQDIANKGAKQSGLYFIKPLKANQQFLVYCEIDGSGNGWTVFQKRLDGSVDFKKNWIQYKEGFGHLSPTGTTEFWLGNEKIHLISTQSAIPYALRVELEDWNGRTSTADYAMFKVGPEADKYRLTYAYFAGGDAGDAFDGFDFGDDPSDKFFTSHNGMQFSTWDNDNDKFEGNCAEQDGSGWWMNKCHAGHLNGVYYQGGTYSKASTPNGYDNGIIWATWKTRWYSMKKTTMKIIPFNRLTIGEGQQHHLGGAKQAGDV
notes: also called FITC-fibrinogen
Kd [1]: 9200 nM
Kd [2]: 566 nM
fold lower affinity/avidity than for aPB [3]: ~15 fold

B2: Recombinant penton base from adenovirus type 2 (ligand)
chain: MQRAAMYEEGPPPSYESVVSAAPVAAALGSPFDAPLDPPFVPPRYLRPTGGRNSIRYSELAPLFDTTRVYLVDNKSTDVASLNYQNDHSNFLTTVIQNNDYSPGEASTQTINLDDRSHWGGDLKTILHTNMPNVNEFMFTNKFKARVMVSRSLTKDKQVELKYEWVEFTLPEGNYSETMTIDLMNNAIVEHYLKVGRQNGVLESDIGVKFDTRNFRLGFDPVTGLVMPGVYTNEAFHPDIILLPGCGVDFTHSRLSNLLGIRKRQPFQEGFRITYDDLEGGNIPALLDVDAYQASLKDDTEQGGDGAGGGNNSGSGAEENSNAAAAAMQPVEDMNDHAIRGDTFATRAEEKRAEAEAAAEAAAPAAQPEVEKPQKKPVIKPLTEDSKKRSYNLISNDSTFTQYRSWYLAYNYGDPQTGIRSWTLLCTPDVTCGSEQVYWSLPDMMQDPVTFRSTSQISNFPVVGAELLPVHSKSFYNDQAVYSQLIRQFTSLTHVFNRFPENQILARPPAPTITTVSENVPALTDHGTLPLRNSIGGVQRVTITDARRRTCPYVYKALGIVSPRVLSSRTF
notes: also called Alexa-penton base; aPB
shift of the adhesion dose-response curve with AP5 against no additive [4]: 7 fold
binding result [5]: no binding
Kd [1]: 550 nM
fold increase in specific binding with phorbol myristate acetate against no agonist [6]: 2.7 fold
Kd [2]: 160 nM
